How the values were obtained:
[1] = HEK 293, Western blot densitometry, pro-BNP to BNP conversion; settings: glycan lost; control: wild type
[2] = HEK 293 co-expression, Western blot of conditioned medium; settings: glycan lost; control: wild type

pro-BNP (pro-B-type natriuretic peptide): T71A
other: proteolytic processing [1]: increases | other: proteolytic processing [2]: increases
